Source: the supplement of paper PMC9170038

System: MS2 coat protein
Assay: apparent KD of MS2 coat protein; designed switch direction (-1 OFF switch, 1 ON switch): 1; higher = weaker reporter binding
Method in brief: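 Designed RNA switches with common flanks were transcribed on Illumina chips by stalled E. coli RNA polymerase and titrated with SNAP-549-labelled MS2 coat protein, from 0.7 or 1.5 nM doubling to 3 µM, in Tris-HCl pH 7.5 buffer with KCl, MgCl2, BSA, DTT, tRNA and Tween-20. Steps lasted 0.8–1.5 h (lowest) to 10–20 min (highest). Titrations ran without input, with 200 uM small-molecule ligand, or with an oligonucleotide input. Normalised cluster fluorescence was curve-fitted, and apparent KD is the per-design median over clusters.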

[1] = Eterna round: R95, input ligand: FMN 200 uM
[2] = Eterna round: R95, input ligand: microRNA oligo, concentration not stated
[3] = Eterna round: R95, input ligand: none
[4] = input ligand: microRNA oligo, concentration not stated

Sequence | apparent KD of MS2 coat protein [1] | apparent KD of MS2 coat protein [2] | apparent KD of MS2 coat protein [3] | apparent KD of MS2 coat protein (input ligand: FMN 200 uM) | apparent KD of MS2 coat protein [4] | apparent KD of MS2 coat protein (input ligand: none)
UGUCCAGCCUGAGCUGGACAAAAGCAUGUACAUGAGGAUCACCCAUGUUCAUGUACAAGCUUUUUGCUCGUCUUACG [salish99_208a_r3_082] (puzzle: Sensor for hsa-mir-208a) | 763 nM | 15 nM | 690 nM | – | – | –
GCUGCAAGGGCAGGAUAUGGGUCCAAAGCGCAAGUGCGCUUUGGUACAUGAGGAUCACCCAUGUCCCAGAAGGGCCCAAGCGGC [Quzaceza] (Eterna round: R96, puzzle: Same State NG 2) | – | – | – | 15.6 nM | 83.1 nM | 140 nM
GAGUAGUUGAUAGGAUAUUGAUUGUUAUAGGAUCAAGAAGGAUCUAACAUGAGGAUCACCCAUGUAGGACUAUUCCUGUGUAUC [Parity 84 - Jieux - Same State NG 1] (Eterna round: R96, puzzle: Same State NG 1) | – | – | – | – | 16.9 nM | –
UUGUUUAGUAAUUAACAUGAGGAUCACCCAUGUCUUGGCUCAGAGGAUAUGCAUGUUUGAUUGUAGCAGAAGGCUGAUUGUUGU [JR_SSNG3_Sub030] (Eterna round: R96, puzzle: Same State NG 3) | – | – | – | 65.1 nM | 148 nM | 107 nM
CUCAAAACAAGUUGCAGUGUUCGUCUUUAACAUGAGGAUCACCCAUGUAAUAGCCCGGUGGAAGCGCUCGGGCUACC [Edtireisge] (puzzle: Sensor for hsa-mir-208a) | 39.8 nM | 24 nM | 45.5 nM | – | – | –
GUAGAUGUAGAGGAGGAUAUUCAAUGAGGAACAUGAGGAUCACCCAUGUAAGAGAGAGAUGAUAGGAAGAAGGCUUAGAGAGAUG [Altered State 2-5 - Jieux - Same State 2] (puzzle: Same State 2) | 24.2 nM | 31.7 nM | 43.1 nM | – | – | –
CUCUCACAUGAGGAUCACCCAUGUCCACCUCCGUGAGGAUAUAGAUAAUAAAUACAUUUACUAGAAGGCGCAUCCC [Bay] (puzzle: Same State 1) | – | 263 nM | – | – | – | –
UUCUCUUUUUAGAGACAAGCUUUUUGAUCACAUGAGGAUCACCCAUGUCUCGUCUUAUGAUCUACUUCGGUAGAUCU [BA Sensor hsa-mir-208a - 2 - 5] (puzzle: Sensor for hsa-mir-208a) | 155 nM | 13.9 nM | 144 nM | – | – | –
AGAAAAGAAAGAAAGGAUAUACAGAAAAGAACAUGAGGAUCACCCAUGUAAGAAGAGGAGGGAGGGUAGAAGGUUCAAGAAAGAA [JR_SS2_Sub017] (puzzle: Same State 2) | 21 nM | 33 nM | 19.3 nM | – | – | –
AUUGCUAUCACAGGAUAUCAUGCGAAAAUUGCGUGAGAAGGGUGGACUCUGUCAUUGCCGGAGGACAUGAGGAUCACCCAUGUC [SameState NG1 #100] (Eterna round: R96, puzzle: Same State NG 1) | – | – | – | 96.2 nM | 27 nM | 60.9 nM
UGGUACAUGGGAGGAUAUCCUCAGGAGACAUGAGGAUCACCCAUGUAUUAUAAGCCGAAAGGCAUGGAGAAGGCCCAUGUACCU [JL SSNG1 3.82] (Eterna round: R96, puzzle: Same State NG 2) | – | – | – | 14.1 nM | 112 nM | 123 nM
GGCCUCUGUCAAGGAUAUGCUACCGUUUCGGUAGCAGAAGGUGAUCACAUGCGGGUCACCCAUGUUUAGGCCAACAGGCCCGCC (Eterna round: R96, puzzle: Same State NG 1) | – | – | – | 63 nM | 1.08 nM | 3.57 nM
GGACGUCAAUAUGAAUUCCCACAUGAGGAUCACCCAUGUCAUGAGGAUAUGGAUCCUAAUUGGAUCCAGAAGGCAUGGACGUCC [Fiskers NG3ss - 37] (Eterna round: R96, puzzle: Same State NG 3) | – | – | – | 17.8 nM | 13 nM | 17.8 nM
GUGGUCAGACAUGAGGAUCACCCAUGUGGAAUAAAUAAGGAACAGGAUAUGGAAUAUAGGAUAUACCAGAAGGGUUGGUUGGUG (Eterna round: R96, puzzle: Same State NG 3) | – | – | – | – | 62.3 nM | –
AAACCACAUGAGGAUCACCCAUGUCAAGAGAGACUAGGAUAUCUGAAUUAAUUAAAUUAAGGAGAAGGAGUGAAAA [71%, Same state of confusion2, 3] (Eterna round: R96, puzzle: Same State 1) | – | – | – | 57.4 nM | 100 nM | 131 nM
AGCGAGAUAGGCAAGGAUAUGCUGAGGUGCACAUGAGGAUCACCCAUGUCAGUGGCGAAAGCGAAGCAGAAGGUGCAUUCUCUUU [ak fifth] (puzzle: Same State 2) | 27.1 nM | 190 nM | 332 nM | – | – | –

Sequence | apparent KD of MS2 coat protein [1] | apparent KD of MS2 coat protein [2] | apparent KD of MS2 coat protein [3] | apparent KD of MS2 coat protein (input ligand: FMN 200 uM) | apparent KD of MS2 coat protein [4] | apparent KD of MS2 coat protein (input ligand: none)
CGACACACGGCAGGAUAUCGAUUCCAAAGGAAUCGAGAAGGGCCUCAUGUCGUGGAAACGUGACAUGAGGAUCACCCAUGUCGC [Omei SS(NG)1 Cv17] (Eterna round: R96, puzzle: Same State NG 1) | – | – | – | 17.2 nM | 11 nM | 16.9 nM
GCUACCAAUGAAGCCAACAUGAGGAUCACCCAUGUAUGUUGGUAGGAUAUCGAUUGCAAAGCGAUCGAGAAGGGCUAAGGUAGC [Mat - Same State NG 3 - JL Mod - D82] (Eterna round: R96, puzzle: Same State NG 3) | – | – | – | 51.9 nM | 59.6 nM | 54.5 nM
GGUGUACAUGAGGAUCACCCAUGUCGUACGACAUGAGGAUAUGUACAGACUUCGGUCUGUACAGAAGGCAUGUGUC [SS1 - 1011 Omei Mod 5] (puzzle: Same State 1) | – | 210 nM | – | – | – | –
CCAUAGUACAAUUUAGAUCUACAUGAGGAUCACCCAUGUACUGAGGAUAUCAGCUCGAUUAGAGCUGAGAAGGCAGAAGUACUU [SSNG3/6-A2] (Eterna round: R96, puzzle: Same State NG 3) | – | – | – | 39.3 nM | 64.6 nM | 81.1 nM
AGCUAUUAAUCAGGAUAUAGGGACAUGAGGAUCACCCAUGUAUAAAUGAUGAAAUGUGGUCACCUCUAGAAGGGAUUACUAACA [SameState NG2 #43] (Eterna round: R96, puzzle: Same State NG 2) | – | – | – | 42.7 nM | 29 nM | 40.4 nM
ACAUGAGAGAUAGGAUAUCUUGUACCUACAUGUGACAUGAGGAUCACCCAUGUGGUAAGUAUGACAGAGAAGGAUCAGAUAUGU [Equivalance 70 - Jieux - Same State NG 2] (Eterna round: R96, puzzle: Same State NG 2) | – | – | – | 20.5 nM | 62.8 nM | 82.4 nM
CCGGCAAGUAUAGGAUAUCCCGCAACAGAAGCGGGAGAAGGGUGCCAAACAUGAGGAUCACCCAUGUACACCGGAAAUAAAUAA [Veaat] (Eterna round: R96, puzzle: Same State NG 1) | – | – | – | 92.9 nM | 46.6 nM | 30.5 nM
GAAGAACAUGAGGAUCACCCAUGUAAGCGGAAGCUAGGAUAUGCGGGAAAGAAGAGAGAAGCAGAAGGAGUAGGAA [JR_SS1_Sub029] (puzzle: Same State 1) | 29.6 nM | 34.4 nM | 48.8 nM | – | – | –
AGCUAAAACGAAGGAUAUACUGACAUGAGGAUCACCCAUGUAUACAUGAUUUAUUGUGAUCACAUGUAGAAGGUCGUACUAACA [SameState NG2 #21] (Eterna round: R96, puzzle: Same State NG 2) | – | – | – | 310 nM | 269 nM | 413 nM
GCAGAACAUGAGGAUCACCCAUGUCUCUAAAGUCGAGGAUAUGGGCAGGUUAUAUCCGAACCAGAAGGCGAUCUGC [SS1 Teenbexe 13] (puzzle: Same State 1) | – | 108 nM | – | – | – | –
CCUUAGUACAAUUUAGAUCUACAUGAGGAUCACCCAUGUACUGAGGAUAUCAGCUCGUUUAGAGCUGAGAAGGCAGAAGUACUU [SSNG3/7-A3] (Eterna round: R96, puzzle: Same State NG 3) | – | – | – | 75.1 nM | 67.6 nM | 140 nM
UGUACAUGAGGAUCACCCAUGUCUAGACAUGUUAAUAUAAUGUAGGAUAUAUAAAAUUUAAUUUAAUAGAAGGACAAUUUUUUU [JMF's solution 1] (Eterna round: R96, puzzle: Same State NG 3) | – | – | – | 278 nM | 218 nM | 297 nM
GGUCCAGCCUGAGCUGGACAAAAGCAUGUACAUGAGGAUCACCCAUGUCAUGUACAAGCUUUUUGCUCGUCUAAAAG [Mat - hsa-mir-208a - 95] (puzzle: Sensor for hsa-mir-208a) | 234 nM | 19 nM | 467 nM | – | – | –
UUUAUAUUCAGAGGAUAUUAAAGUAGUAUAAUAUAAGAAGGCUGUUUGUUUUGUAAAUUUAUUCUACAUGAGGAUCACCCAUGU [JR_SSNG1_Sub086] (Eterna round: R96, puzzle: Same State NG 1) | – | – | – | – | 14.5 nM | –
UUUAUAUUCAGAGGAUAUUAAUGUAGUAUAAUAUAAGAAGGCUGUUUGUUUUGUAAAGUUAUUAUACAUGAGGAUCACCCAUGU [JR_SSNG1_Sub083] (Eterna round: R96, puzzle: Same State NG 1) | – | – | – | – | 13.5 nM | –
AUUUAACAAGCUUUUUGCUCGUCUUAUAAACAUGAGGAUCACCCAUGUAAUAGCGUGAGAGUAAAUUUUUAAAUAAU [JMF 95] (puzzle: Sensor for hsa-mir-208a) | 14.5 nM | 38.9 nM | 14.8 nM | – | – | –
